In paper PMC4068289:

Biological target: human amyloid β 1–40 carrying the A2V mutation (Aβ_(1–40A2V)) (human)
Assay: far-Western, overlay or dot blot

- fold increase in the proportion of A11-stained oligomers against WT: 3 fold
Substance: human amyloid β 1–40 carrying the A2V mutation (Aβ_(1–40A2V)) (peptide)
